Assay: label from the status in PepcDB records

Sequence | protein production
MKDNTPASSPERWIIYGANGYTGELIAREAVKRGHHPILAGRSLEKVQSLAAELGLQSLAFSLEDKSSAVQHISGSSLVLNCAGPFSSTAKPMMKACLEAGAHYLDITGEISVFEFAQTLQSQAKEASVVLCSGVGFDVIPTDCIAATLKAALPDATHLSLGFDSRSGFSPGTAKTSVEGLAQGGKVRLNGKITTVPLAYKVHNIDFGDGEKLAMTIPWGDVSTAYYTTGIENIDVFIPGSPNMIKNAKRANWVRPLLGITWVQNLIKSRIERTVKGPNEEQRNQLPTYVWGKASNKLGQSKTARVQTANGYSLTVTGSLAIVEHLLHTKPEAGVYTPSKLMGSNFVSQLPGSSGITIEE | failed
MKDSMFLYEFDLFRYSKDLTALSFLLLIGSSLTVHWVSLSMSSSRDLLHYLVLPLILVVILHEGLHALTAKLSGAKTSLGVLTKYGIILAVYVGINTPLPVKKIRYITIAPIIISIVAFFFSWVTYSPFWAILYIFNTTGIVGDLIVFLVLSKMPSDAIVVDEGTIMKSNAEFPEPYPSWFSKLIIGLAVLVFLYILTNIRIEFEVVGTLPNQTMPVNSHFE | failed
MKEDAGNPLHLTSLNHVSVLCRSVDESMNFYQKVLGFIPIRRPESLNFEGAWLFGHGIGIHLLCAPEPEKLPKKTAINPKDNHISFQCESMGVVEKKLEEMGIDYVRALVEEGGIQVDQLFFHDPDGFMIEICNCDSLPVVPLVGEMARSCSRVKLHQMVQPQPQTQIHQVVYP | failed
MKEELFKEKSRYITGFVLIIVADLILYADNLLLFWAVLGGIYAVGFSEALRLFQVKASFSLYLILVLSWVAAYFNGRPIECALISAMVMASVIAYQKAHHSEAILPFLYPGVGFFALFGVYKDFGAVAIIWLLVVVVASDVGAFFGGKLLGKTPFTPTSPNKTLEGALIGVVLASVLGSFVGMGKLSGGFFMALFFSFLIALVAVFGDLYESYLKRKVGIKDSGKILPGHGGVLDRLDSMLFGALGLHALLYFLEIWKETAVFLGD | failed
MKEIDELTIKEYGVDSRILMERAGISVVLAMEEELGNLSDYRFLVLCGGGNNGGDGFVVARNLLGVVKDVLVVFLGKKKTPDCEYNYGLYKKFGGKVVEQFEPSILNEFDVVVDAIFGTGLRGEITGEYAEIINLVNKSGKVVVSVDVPSGIDSNTGKVLRTAVKADLTVTFGVPKIGHILFPGRDLTGKLKVANIGHPVHLINSINRYVITREMVRSLLPERPRDSHKGTYGKVLIIAGSRLYSGAPVLSGMGSLKVGTGLVKLAVPFPQNLIATSRFPELISVPIDTEKGFFSLQNLQECLELSKDVDVVAIGPGLGNNEHVREFVNEFLKTLEKPAVIDADAINVLDTSVLKERKSPAVLTPHPGEMARLVKKTVGDVKYNYELAEEFAKENDCVLVLKSATTIVTDGEKTLFNITGNTGLSKGGSGDVLTGMIAGFIAQGLSPLEASTVSVYLHGFAAELFEQDERGLTASELLRLIPEAIRRLKE | not failed
MKEIQYEIVKEIAVLSASDSGYTKEINLISWNGREPKYDIRSFSPNREKCGKGITLNADEAAALLEALQKEVNSGD | failed
MKEKVQSPELRFDGFTDGWEQRKFADFIDVKSGKDYKHLNSGSIPVYGTGGYMLSVDRALSDIDAIGFGRKGTIDKPYLLKAPFWTVDTFFYAVPKQNIDLQFSLSIF | failed
MKELSKSDRTRQFIIESTAPVFNVKGLAGTSLTDLTEATNLTKGSIYGNFENKEAVAIAAFDYNWGHVKSVLTAKVQACNTYKEMLLVYSSMYNDADGSLFPVGGCPLLNTTIEADDTHDALRKKAGEAILSWKKNLVTIIKKGIQAKEFRPDTDVTKIAFSMIALVEGAILIHRATKNRAYSDYVFESLEDLIAGIEVKKK | not failed
MKENLELVEFFEYLLILVLNMLVASIVFLQEYCIGSIRLSHYRRIFATVMAIRSLVSIWIIYPMTATLLGTLNILVIQSIILLFLWGLMQCVKKYRGKWYITMIALIIYGLSCYFHIMYAKTV | failed
MKEQYRNQNTFLSMIDMDLIRRGLLHAIQDLVFIVKVMDDETFTYIYVNKIGMDYAKLSEECYGKTFSEVLPKDTAEILQVQYAKVASEVKAHTFCDVVSLPTGNLHYESSLNPVFDEEGVCQFIICITRDIT | failed
MKFAFVFPGQGSQSVGMLNAFADVAVVRETLDEASDALGQDIGKLIADGPADELNLTTNTQPVMLTAAYACYRAWQQAGGAQPSIVAGHSLGEYTALVAAGAIAFRDALPLVRFRAQAMQTAVPVGVGGMAAILGLDDDTVRAVCAEASATGVVEAVNFNAPAQVVIAGTKAGIEKACEIAKEKGAKRALPLPVSAPFHSSLLKPASDKLREYLAGVDVKAPKISVVNNIDVAVVSDPAAIKDALVRQAAGPVRWVECVQHIAREGVTHVIECGPGKVLAGLTKRIDGNLVGASVFDPASLDEALKLAAA | not failed
MKFFQRTVLEPAYQGAQLHPGKLSGIYQNEILCNSLFHHYKQRTLKLGRELESRLKHLYHLVRMALPGTVSANTTRRSPANSIHTEVQIDSRTDTHLPQVSDDEDLRWIRTGLPHQYHAYLAIDRLKSSHHLAGQSVLCIGGRAALYPNYHQLIEAAGGHFMVFRGGAQDNSECLLALLARVDSIICPVDCINHEDFFTVRRYCQRTGKNCVMLERSDLVTFGKAVETLARGDCHNSETLEHHHHHH | failed
MKFGRRATSRTEPGKRCVARPRYNSAMSEFTDSAAGRSATSPADASSSALRRLRAIQPLPDQLISQIAAGEVVERPASVVKELVENALDAGAGTLRILLDEGGVKRISITDDGCGIPAAELPLALMRHATSKIRSLAELEAVATLGFRGEALASIASVAEMFITSRTEDDAHATRIDAQTGVLAPAAGTRGTTIEVRELYFSTPARRKFLKSEQTEFGHCLEMIRRAALARPDVAISVLHNGRAVEHWNASEPAARVAKILGDGFATAHLPLDERAGPLAVYGCAGLPTASRGRADQQYFFVNGRFVRDKLLTHAVRAAYEDVLHGDRYPSYVLFLDLPPEAVDVNVHPSKIEVRFRDSRSIHQFVFHAVQRALARHAGASPETTAGGHAAHLSPVEPAQAGSPAAPSASFVRPDAAAAGAGVGHPAPGNTWLRQSRMTQGTLPVAQPLALYDALFGRKDSGAGTPHGTTGVLEARDAPDAPGAPLFASAPGGAAMPAFSAAGASDPAMHDEQPLGFAVGQIHGIYVLAQNARGLVIVDMHAAHERILYEQFKRALADRTVAVQTLLIPVSMTATPVEVGTAEEERETLDALGFDLAVLSPTTLAIRAVPALLKDADLQALARAVLADLHAFGGSRVLTERQHELLGTLACHHAVRANRRLTLDEMNALLRQMEATERADQCNHGRPTWYQLTLGDLDKLFMRGQ | failed
MKFILRLGLALLTGFVSVSTASAQAYGTADTNAPELRVPKSVQPAFDYWMRDTWATLGPDGYYYITGTTSTPDRHFPGQRHCWDWNDGLYLWRSKDLKIWEAMGRIWSMEKDGTWQKDPKVYKEGEKYAKKSINNDPMDNRFHAVWAPEMHYIKSAKNWFIVACMNQSAGGRGSFILRSTTGKPEGPYENIEGNEDKAIFPNIDGSLFEDTDGTVYFVGHNHYIARMKPDMSGLAEEIKTLKESKYSPEPYVEGAFIFKYDGKYHLVQAIWAHRTVKGDTYVEKEGLTNKKTRYSYDCIIATADNVYGPYGKRYNAITGGGHNNLFQDKDGNWWATMFFNPRGAQAAEYKVTCRPGLIPMLYENGKFKPNHNYQAK | failed
MKFIRRCMMETRYTVRQAVEMTGVKSYVLRYWEEELELQIHRNELGHRYYTGYDIQLFLNIKELKKRGLQLRAIKNLIPQITASMTGFGESASTLLEGEVIDHAEVKTDRDLKEKISKKDEGKNDKILEFQAILERLITQELKAQNEDEERCRSLDYAIRRQQLARKEAAAAAEKKSGRRRRDK | not failed
MKFKRLRTSENKLYYKAMELYKISFPFHEQRKSSLQEEILKNKEYQFNLIYDKNQFVGIILCWETDDFIYVEHFCIFPEMRNNRYGQRALELLNKKGKTIILEIDLPIDEISIYRKAFYERVKYKTNNYEHIHPPYHEKFNGHNLIVMSYPEKLSKMEYDKFNHYLRNNVMSF | failed
MKFLTTNFLKCSVKACDTSNDNFPLQYDGSKCQLVQDESIEFNPEFLLNIVDRVDWPAVLTVAAELGNNALPPTKPSFPSSIQELTDDDMAILNDLHTLLLQTSIAEGEMKCRNCGHIYYIKNGIPNLLLPPHLV | failed
MKFQLKRLAKKRPDRVQIKIQDGQFEIIGMGVWHSYWRDPYHLLLTIPWTGFLLLICLSYLAINLIFALAYWLGGDCIANAKPGNFLDLFFFSVQTLASIGYGAMYPKTLYANTVVTIEAMIGLVGIAVMTGLAFARFSRPSARVIFSRVAVITPYNDVPTLMFRTANQRRNLILEAQMRVYLMRDEITAEGGFIRRFHDLKLLRNQTPSFTLSWLALHPIDEFSPLYGMSAESLIQTNTNIIISVSGIDETVAQVVHARYTYTASNILWNSRFVDIFHHTSDGHRYIDYKYFHDVLPLDKIG | failed
MKFRGNFVCQPRAGPAESRPTRPFTPRPSATGSLFMSNQHFVSPDLIRQGFSRAMSDMYREEVPLYGALMELVAEVNAQVLERQPALARHLQSSGELQRLDLERHGAIRVGSAAELATLARLFAVMGMQPVGYYDLTPAGVPVHSTAFRAVHEAALQVSPFRVFTSLLRLELIDNPELRSFAEQVLARRQIFTPQVLELIQQAEAAGGLDAEDAERFIRQALETFRWHHHATVTAAQYASLSAQHRLIADVVAFKGPHINHLTPRTLDIDEVQRLMPARGITPKAVIEGPPRRECPILLRQTSFKALEESVAFTDQAQSQGSHSARFGEIEQRGAALTPKGRELYDRLLNAARDALGDFPNEANAQRYNQLMQEHFREFPDSHPAMREQGLAYFRYFVSETGLAARNQPQRPTTLAALLAAGHLSAEPLVYEDFLPVSAAGIFQSNLGDDSQSHYAGQSNRQAFEAALGRPTLDELQLYAQTQQRSLEHCAATLGLPAL | failed
MKFSIIVPSYNSEKYIAELLNSLQNQSYDKKDFEVILVDDCSSDNTLNVVEAYKNKLNLIIKQLDTNSGGPGKPRNTALQLAQGEYVFFVDSDDYINKDTLKDVSKFVDQNHADVVLVKMEGVNGRGVPKSMFKETSDAVTLANSRIIYTLSPTKFYRTSLLRDHAIEFPEDLRSAEDQLFTMKAYVNAKRIAVLADKPYYYATKREGEHMSSAYVSPEDFYKVMSLITEEILNSPLENKNEVLGYFIDRHFSFSRTNNFSLKIADDKKEAWMDALGDFIQKVPTVVDELVNDSFKPLLHYARLKDMKHYQMVEESYKNGKFHSYSAQEGTLKIQFDEGEPYFVFKKLVKPDIRMSHFEFNDQGFELELEFISSIINPNHVASMIQLKLLSRNKKEFIYIPLTMNDQTRFKFKADLNDLMPYLIKEKVWDAHLEMRVDNMTIEKRIGNKRVKYPYSKETSTITQYNNQYYRFTPYFTKDFDNLSFYITSNKLNEMLAVEIKDKQTIQLRSLEFNYILSEGMTAVILPHMFTYGYLTSVTTKDTLTYHLSVGEKVKDKDLKKNFKIETPHLVLKYLEHHHHHH | not failed
MKFSKFGQKFTQPTGISQLMDDLGDALKSDQPVNMLGGGNPAKIDAVNELFLETYKALGNDNDTGKANSSAIISMANYSNPQGDSAFIDALVGFFNRHYDWNLTSENIALTNGSQNAFFYLFNLFGGAFVNEHSQDKESKSVDKSILLPLTPEYIGYSDVHVEGQHFAAVLPHIDEVTHDGEEGFFKYRVDFEALENLPALKEGRIGAICCSRPTNPTGNVLTDEEMAHLAEIAKRYDIPLIIDNAYGMPFPNIIYSDAHLNWDNNTILCFSLSKIGLPGMRTGIIVADAKVIEAVSAMNAVVNLAPTRFGAAIATPLVANDRIKQLSDNEIKPFYQKQATLAVKLLKQALGDYPLMIHKPEGAIFLWLWFKDLPISTLDLYERLKAKGTLIVPSEYFFPGVDVSDYQHAHECIRMSIAADEQTLIDGIKVIGEVVRELYDNK | not failed

Source: a protein production outcome set (Wang et al. 2014)
